Laboratory results taken from patent publication US20180057581A1 (MorphoSys, published 2018).

T1: Recombinant human sgM-CSF (human, UniProt P09603 33-255)
T1 sequence: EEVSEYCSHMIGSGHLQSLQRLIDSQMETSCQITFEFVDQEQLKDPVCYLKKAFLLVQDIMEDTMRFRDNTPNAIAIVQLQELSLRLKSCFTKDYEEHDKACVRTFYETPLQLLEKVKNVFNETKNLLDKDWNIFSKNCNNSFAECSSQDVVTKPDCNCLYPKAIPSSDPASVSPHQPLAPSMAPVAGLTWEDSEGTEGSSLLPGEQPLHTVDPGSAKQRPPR

T2: Recombinant cynomolgus monkey sgM-CSF (cynomolgus (Macaca fascicularis), UniProt P09603 33-255 (human entry), limits assumed)
T2 chain: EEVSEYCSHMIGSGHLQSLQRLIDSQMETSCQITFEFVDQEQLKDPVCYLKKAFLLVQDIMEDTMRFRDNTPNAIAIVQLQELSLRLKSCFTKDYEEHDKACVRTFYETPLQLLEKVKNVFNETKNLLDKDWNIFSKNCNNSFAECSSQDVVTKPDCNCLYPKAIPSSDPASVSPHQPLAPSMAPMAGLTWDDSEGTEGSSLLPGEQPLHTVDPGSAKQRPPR

T3: human cell-surface M-CSF on stably transfected CHO cells (human, UniProt P09603 33-554)
T3 construct: also called csM-CSF
T3 sequence: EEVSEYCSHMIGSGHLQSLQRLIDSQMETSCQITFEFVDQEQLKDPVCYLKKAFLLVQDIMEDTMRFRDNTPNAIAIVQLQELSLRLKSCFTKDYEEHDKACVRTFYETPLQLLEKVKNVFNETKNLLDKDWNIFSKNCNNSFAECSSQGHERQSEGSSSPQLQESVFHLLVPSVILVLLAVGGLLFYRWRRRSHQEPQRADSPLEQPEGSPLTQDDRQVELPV


Columns and labels:
[1] = biological target: T1, Recombinant human sgM-CSF; assay: cell-based or functional assay
[2] = biological target: T2, Recombinant cynomolgus monkey sgM-CSF; assay: cell-based or functional assay
[3] = biological target: T3, human cell-surface M-CSF on stably …; assay: FACS, CHO cells stably transfected with M-CSF (n = 3)
[4] = biological target: T1, Recombinant human sgM-CSF; assay: MSD receptor binding inhibition: 12.5 pM human sgM-CSF preincubated with antibody, binding to coated human CSF1-R-Fc
Protocol: (§1) Complexes were then transferred to 384 well MSD plates coated with 2 μg/ml of the corresponding receptor. Plates were then washed and incubated with the streptavidin/ECL conjugate for 2 h with shaking at room temperature. 35 μl MSD read buffer T with surfactant was then added per well and subsequently measured using MSD Sector Imager 6000.

[5] = biological target: T2, Recombinant cynomolgus monkey sgM-CSF; assay: MSD receptor binding inhibition: 12.5 pM cynomolgus sgM-CSF preincubated with antibody, binding to coated human CSF1-R-Fc
Protocol: as §1

Binder | IC50, inhibition of M-NFS-60 proliferation induced by recombinant human M-CSF (9.5 pM) [1] [pM] | IC50, inhibition of M-NFS-60 proliferation induced by recombinant cynomolgus M-CSF (9.5 pM) [2] [pM] | EC50 [3] [nM] | IC50 [4] [nM] | IC50 [5] [nM]
Blanche, IgG1_D265A (antibody, V domains shown, tested as IgG1 with D265A in the Fc (EU index); Parental antibody of Caline, Camille, Celine) VH: QVQLQQSGPGLVKPSQTLSLTCAISGDSVSSNSAAWNWIRQSPSRGLEWLGRTYYRSKWKHEYAMSVKSRITINPDTSKNQFSLQLNSVTPEDTAVYYCARDRYYYSAFDYWGQGTLVTVSS VL: DIALTQPASVSGSPGQSITISCTGTSSDVGGYNSVSWYQQHPGKAPKLMIYAVSNRPSGVSNRFSGSKSGNTASLTISGLQAEDEADYYCASYDERFTRVFGGGTKLTVLG | 2.9 | 3.3 | 7.5 | 0.0062 | 0.0066
Caline, IgG1_D265A (antibody, V domains shown, tested as IgG1 with D265A in the Fc (EU index)) VH: QVQLQQSGPGLVKPSQTLSLTCAISGDSVSSNSAAWNWIRQSPSRGLEWLGRTYYRSKWKHEYAMSVKSRITINPDTSKNQFSLQLNSVTPEDTAVYYCARDRYYYSAFDYWGQGTLVTVSS VL: QSALTQPASVSGSPGQSITISCTGTSSDVGGYNSVSWYQQHPGKAPKLMIYAVSNRPSGVSNRFSGSKSGNTASLTISGLQAEDEADYYCASYDERFTRVFGGGTKLTVLG | 3.1 | 4.3 | 9.8 | 0.0061 | 0.0063
Camille, IgG1_D265A (antibody, V domains shown, tested as IgG1 with D265A in the Fc (EU index)) VH: QVQLQQSGPGLVKPSQTLSLTCAISGESVSTSSAAWNWIRQSPSRGLEWLGRTYYRSKWKHEYAVSVKSRITINPDTSKNQFSLQLNSVTPEDTAVYYCARDRYYYSAFDYWGQGTLVTVSS VL: QSALTQPASVSGSPGQSITISCTGTSSDVGGYNSVSWYQQHPGKAPKLLIYAVSNRPSGVSNRFSGSKSGNTASLTISGLQAEDEADYYCASYDERFTRVFGGGTKLTVLG | 2.3 | 2.6 | 6.1 | 0.0044 | 0.0059
Celine, IgG1_D265A (antibody, V domains shown, tested as IgG1 with D265A in the Fc (EU index)) VH: QVQLQQSGPGLVKPSQTLSLTCAISGDSVSTSSAAWNWIRQSPSRGLEWLGRTYYRSKWKHEYAVSVKSRITINPDTSKNQFSLQLNSVTPEDTAVYYCARDRYYYSAFDYWGQGTLVTVSS VL: QSALTQPASVSGSPGQSITISCTGTSSDVGGYNSVSWYQQHPGKAPKLIIYAVSNRPSGVSNRFSGSKSGNTASLTISGLQAEDEADYYCASYDERFTRVFGGGTKLTVLG | 2.7 | 3 | 9.7 | 0.0047 | 0.0069
Laurine, IgG1_D265A (antibody, V domains shown, tested as IgG1 with D265A in the Fc (EU index); Parental antibody of Madeleine, Maelle, Meriem) VH: QVQLQQSGPGLVKPSQTLSLTCAISGDSVSSNSAAWNWIRQSPSRGLEWLGRTYYRSKWKKEYAQSVKSRITINPDTSKNQFSLQLNSVTPEDTAVYYCARDRYYYSAFDYWGQGTLVTVSS VL: DIALTQPASVSGSPGQSITISCTGTSSDVGGYNSVSWYQQHPGKAPKLMIYAVSNRPSGVSNRFSGSKSGNTASLTISGLQAEDEADYYCASYDERFTRVFGGGTKLTVLG | 2.6 | 2.8 | 11.2 | 0.0049 | 0.0043
Madeleine, IgG1_D265A (antibody, V domains shown, tested as IgG1 with D265A in the Fc (EU index)) VH: QVQLQQSGPGLVKPSQTLSLTCAISGDSVSSNSAAWNWIRQSPSRGLEWLGRTYYRSKWKKEYAQSVKSRITINPDTSKNQFSLQLNSVTPEDTAVYYCARDRYYYSAFDYWGQGTLVTVSS VL: QSALTQPASVSGSPGQSITISCTGTSSDVGGYNSVSWYQQHPGKAPKLMIYAVSNRPSGVSNRFSGSKSGNTASLTISGLQAEDEADYYCASYDERFTRVFGGGTKLTVLG | 3 | 2.8 | 6.4 | 0.0056 | 0.0056
Maelle, IgG1_D265A (antibody, V domains shown, tested as IgG1 with D265A in the Fc (EU index)) VH: QVQLQQSGPGLVKPSQTLSLTCAISGESVSTSSAAWNWIRQSPSRGLEWLGRTYYRSKWKKEYAQSVKSRITINPDTSKNQFSLQLNSVTPEDTAVYYCARDRYYYSAFDYWGQGTLVTVSS VL: QSALTQPASVSGSPGQSITISCTGTSSDVGGYNSVSWYQQHPGKAPKLIIYAVSNRPSGVSNRFSGSKSGNTASLTISGLQAEDEADYYCASYDERFTRVFGGGTKLTVLG | 2.7 | 2.3 | 10.2 | 0.0053 | 0.0064
Meriem, IgG1_D265A (antibody, V domains shown, tested as IgG1 with D265A in the Fc (EU index)) VH: QVQLQQSGPGLVKPSQTLSLTCAISGDSVSTSSAAWNWIRQSPSRGLEWLGRTYYRSKWKKEYAQSVKSRITINPDTSKNQFSLQLNSVTPEDTAVYYCARDRYYYSAFDYWGQGTLVTVSS VL: QSALTQPASVSGSPGQSITISCTGTSSDVGGYNSVSWYQQHPGKAPKLIIYAVSNRPSGVSNRFSGSKSGNTASLTISGLQAEDEADYYCASYDERFTRVFGGGTKLTVLG | 3.1 | 2.8 | 12.3 | 0.007 | 0.0073
Romaine, IgG1_D265A (antibody, V domains shown, tested as IgG1 with D265A in the Fc (EU index); Parental antibody of Satine, Servane) VH: EVQLVESGGGLVKPGGSLRLSCAASGFTFSIYAMSWVRQAPGKGLEWVGRIKSNADGGTTEYAAPVKGRFTISRDDSKNTLYLQMNSLKTEDTAVYYCARMRYYSDLYFDPWGQGTLVTVSS VL: DIELTQPPSVSVSPGQTASITCSGDAIGSKYVHWYQQKPGQAPVLVISKDNKRPSGIPERFSGSNSGNTATLTISGTQAEDEADYYCQTATVSSYWWVFGGGTKLTVLG | 8.4 | 8.1 | 16.4 | 0.0091 | 0.0091
Satine, IgG1_D265A (antibody, V domains shown, tested as IgG1 with D265A in the Fc (EU index)) VH: EVQLVESGGGLVKPGGSLRLSCAASGFTFSIYAMSWVRQAPGKGLEWVGRIKSNADGGTTEYAAPVKGRFTISRDDSKNTLYLQMNSLKTEDTAVYYCARMRYYSDLYFDPWGQGTLVTVSS VL: SYELTQPPSVSVSPGQTASITCSGDKLGQKYVSWYQQKPGQSPVLVISQDRKRPSGIPERFSGSNSGNTATLTISGTQAEDEADYYCQTWTHLQWVFGGGTKLTVLG | 5.3 | 5.4 | 11.3 | 0.0151 | 0.0135
Servane, IgG1_D265A (antibody, V domains shown, tested as IgG1 with D265A in the Fc (EU index)) VH: EVQLVESGGGLVKPGGSLRLSCAASGFTFSTYAISWVRQAPGKGLEWVGFIKSKHNSGTTEYAAPVKGRFTISRDDSKNTLYLQMNSLKTEDTAVYYCARMRYYSDLYFDPWGQGTLVTVSS VL: SYELTQPPSVSVSPGQTASITCSGDKLGQKYVSWYQQKPGQSPVLVISQDRKRPSGIPERFSGSNSGNTATLTISGTQAEDEADYYCQTWTHLQWVFGGGTKLTVLG | 11.8 | 13.4 | 21.3 | 0.0313 | 0.0118
HeRX1-10G1, IgG1 (antibody, V domains shown, tested as IgG1) VH: QVQLQESGPGLVKPSQTLSLTCTVSDYSITSDYAWNWIRQFPGKGLEWMGYISYSGSTSYNPSLKSRITISRDTSKNQFSLQLNSVTAADTAVYYCASFDYAHAMDYWGQGTTVTVSS VL: DIVLTQSPAFLSVTPGEKVTFTCQASQSIGTSIHWYQQKTDQAPKLLIKYASESISGIPSRFSGSGSGTDFTLTISSVEAEDAADYYCQQINSWPTTFGGGTKLEIKR | 3.6 | 4.1 | 12.6 | 0.0265 | 0.0276
HeRX1-10G1, IgG1_D265A (antibody, V domains shown, Prior art antibody; tested as IgG1 with D265A in the Fc (EU index)) VH: QVQLQESGPGLVKPSQTLSLTCTVSDYSITSDYAWNWIRQFPGKGLEWMGYISYSGSTSYNPSLKSRITISRDTSKNQFSLQLNSVTAADTAVYYCASFDYAHAMDYWGQGTTVTVSS VL: DIVLTQSPAFLSVTPGEKVTFTCQASQSIGTSIHWYQQKTDQAPKLLIKYASESISGIPSRFSGSGSGTDFTLTISSVEAEDAADYYCQQINSWPTTFGGGTKLEIKR | 3 | 3.5 | 8.9 | 0.028 | 0.018
